Consider six molecules from publication PMC3411048 (The Journal of Biological Chemistry, 2012).

For assay [1], the system named is N-SH2 domain of the phosphatase. To be noted: phosphorylated tyrosine of N-terminal portion; ref [36]; cited from earlier work.
Assay [2] deals with SHP2. The note with it: ref [11], [36]; cited from earlier work.
Assay [3] is described as follows: Phosphopeptide array binding analysis. To be noted: Two Sample Logo, peptide array, GST-tagged N-SH2 domain 1 μg/ml.

Where a chain is given by its changes, count along the chain named. Square brackets hold non-standard residues; d marks the D form. Ends that are not written are not given here. pY = N[C@@H](Cc1ccc(OP(=O)(O)O)cc1)C(=O)O

“GGGGDIT[pY]ADLNLPKGKK [N-terminal portion of the BTAM peptide]”: in assay [1], the “binding to N-SH2 domain” value was “known to bind specifically the N-SH2 domain of the phosphatase”.
For “GGGGDIT(pY)ADLNLPKGKKPAPQAAEPNNHTE(pY)ASIQTS [BTAM peptide]”, the “activation of SHP2” value in assay [2] is “previously demonstrated to activate SHP2”.

B1: wild-type domain: isolated wild-type N-SH2 domain (residues 6–103), polyHis- or GST-tagged (protein)
chain: WFHPNITGVEAENLLLTRGVDGSFLARPSKSNPGDFTLSVRRNGAVTHIKIQNTGDYYDLYGGEKFATLAELVQYYMEHHGQLKEKNGDVIELKYPLN
modifications: left off: polyHis, end not stated, kept
Consider B1, for which the “phosphopeptide positions mediating binding specificity (from pY)” value in assay [3] is −2, −1, +1, +2, and +3 from the phosphotyrosine.

B2: N-SH2^Lys76 (protein)
chain: B1 chain with E71K
modifications: left off: GST, end not stated, kept
As for B2, the “phosphopeptide positions mediating binding specificity (from pY)” value in assay [3] is listed as “Those positions were found to bear the highest information content”.

B3: N-SH2^Asp62 (protein)
chain: B1 chain with Y57D
modifications: left off: polyHis, end not stated, kept
Regarding B3, the “phosphopeptide positions mediating binding specificity (from pY)” value in assay [3] is “Those positions were found to bear the highest information content”.

B4: N-SH2^Cys63 (protein)
chain: B1 chain with Y58C
modifications: left off: polyHis, end not stated, kept
In the case of B4, in assay [3], the “phosphopeptide positions mediating binding specificity (from pY)” value was “Those positions were found to bear the highest information content”.
